Data on four variants can be found in IntAct's records for PubMed 33986552.

B1: Mannose-1-phosphate guanylyltransferase regulatory subunit alpha (Homo sapiens), Q96IJ6-1 (parent)
chain: MLKAVILIGGPQKGTRFRPLSFEVPKPLFPVAGVPMIQHHIEACAQVPGMQEILLIGFYQPDEPLTQFLEAAQQEFNLPVRYLQEFAPLGTGGGLYHFRDQILAGSPEAFFVLNADVCSDFPLSAMLEAHRRQRHPFLLLGTTANRTQSLNYGCIVENPQTHEVLHYVEKPSTFISDIINCGIYLFSPEALKPLRDVFQRNQQDGQLEDSPGLWPGAGTIRLEQDVFSALAGQGQIYVHLTDGIWSQIKSAGSALYASRLYLSRYQDTHPERLAKHTPGGPWIRGNVYIHPTAKVAPSAVLGPNVSIGKGVTVGEGVRLRESIVLHGATLQEHTCVLHSIVGWGSTVGRWARVEGTPSDPNPNDPRARMDSESLFKDGKLLPAITILGCRVRIPAEVLILNSIVLPHKELSRSFTNQIIL

Variants of B1 are the subject of the experiment. As to conditions: with GMPPB.
Turning to E396R, the “effect of a mutation on the interaction” value is on record as “with no effect”. R318E: the “effect of a mutation on the interaction” value is reported as “disrupting interaction”. W350A;R352A: the “effect of a mutation on the interaction” value is “disrupting interaction”.

For the variant E85K;Q247A, the “effect of a mutation on the interaction” value is listed as “with no effect”.
